According to the supplement of paper PMC9170038:

Test system: MS2 coat protein
Assay: apparent KD of MS2 coat protein; designed switch direction (-1 OFF switch, 1 ON switch): -1; higher = weaker reporter binding
How it was run: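 RNA switches sharing common flanks were transcribed by stalled E. coli RNA polymerase on Illumina chips. A doubling series of SNAP-549-labelled MS2 coat protein, from 0.7 or 1.5 nM to 3 µM, was applied in Tris-HCl pH 7.5 buffer with KCl, MgCl2, BSA, DTT, tRNA and Tween-20. Each step lasted 0.8–1.5 h at the bottom of the series and 10–20 min at the top. Normalised cluster fluorescence was curve-fitted, giving apparent KD as the per-design median over clusters.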

[1] = Eterna round: R95, input ligand: microRNA oligo, concentration not stated
[2] = input ligand: microRNA oligo, concentration not stated
[3] = Eterna round: R95, input ligand: FMN 200 uM
[4] = Eterna round: R95, input ligand: none

Sequence	apparent KD of MS2 coat protein (input ligand: FMN 200 uM)	apparent KD of MS2 coat protein (input ligand: none)	apparent KD of MS2 coat protein [1]	apparent KD of MS2 coat protein [2]	apparent KD of MS2 coat protein [3]	apparent KD of MS2 coat protein [4]
AAAUAGCAUGAGGAUAUCGAAUUAUAUAUAGUACGAGAAGGCAUGACAUGAGGAUCACCCAUGUUUUGUUGGGA [EX6 #1] (Eterna round: R97, puzzle: Exclusion 6)	124 nM	57.5 nM				
AAAUAGCUAGAGGAUAUUGGAUAGGAUUUAAUACGAGAAGGUUAGACAUGAGGAUCACCCAUGUUGUGUUGGGA [EX6 #17] (Eterna round: R97, puzzle: Exclusion 6)	51.3 nM	48.5 nM				
AAAUAGCUAGAGGAUAUUGGAUAGGAUUUACUACGAGAAGGUUAGACAUGAGGAUCACCCAUGUUGUGUUGGGA [EX6 #18] (Eterna round: R97, puzzle: Exclusion 6)	55.2 nM	53.4 nM				
AAAUAGGCAGGAUAUACAUGAGGAUCACCCAUGUGCCUAUGAAAGGUAAUUUUGAAAGGUAGAAGGGCCUAAAA [ChP 13.04.2015 #4] (puzzle: Exclusion 3)			10.1 nM			
AAAUCGGUAGAGGAUAUUGUACAGGAAACGGUGCAAGAAGGUUGCACAUGAGGAUCACCCAUGUUUAAUUGCGA [EX6 #50] (Eterna round: R97, puzzle: Exclusion 6)	33.9 nM	36.2 nM				
AAAUCGGUAGAGGAUAUUGUACAGGAAACGGUGCGAGAAGGCUACACAUGAGGAUCACCCAUGUUAAAUAGCGA [EX6 #55] (Eterna round: R97, puzzle: Exclusion 6)	17 nM	15.8 nM				
AAAUCGUGAGGAUAUCCAAUAUAUGACAUGAGGAUCACCCAUGUUUCCACUCGUACCUCCGGAGAAGGCACAGUUA [Ex5 #73] (Eterna round: R97, puzzle: Exclusion 5)	24.7 nM	26.3 nM				
AAAUGAAAGGCAGGAUAUCGUACUGAUCUUUGUCGAGAAGGGCCAGGGUCCCUCGGCUACAUGAGGAUCACCCAUGUUAAAAGA [Onabele] (Eterna round: R96, puzzle: Exclusion NG 1)	56.9 nM	36.2 nM		29.4 nM		
AAAUGCGAGCGAGGAUAUCAGAAAGGAAGUGUAUGAGAAGGCGCACCGCGGGUAUCCGGACAUGAGGAUCACCCAUGUAGGCUC [PowerStrip EXNG 1.28] (Eterna round: R96, puzzle: Exclusion NG 1)	23.2 nM	29.5 nM		17.8 nM		
AACAAGGGUUAAUGUACGGACAUGAGGAUCACCCAUGUCCACGGAUGUGUGGAGAGGUCCUCUUUGGCUCGUCUUAU [Cac Sensor turn off var1 sub10] (Eterna round: R97, puzzle: Sensor, turn-off variant 1)	47.8 nM	87.8 nM				
AACAGUCUAGAGGAUAUGUGCGAUUAAUAUCGUGCAGAAGGCUGGACAUGAGGAUCACCCAUGUAAAUACUACC [Omei Ex6 A16] (Eterna round: R97, puzzle: Exclusion 6)	79.4 nM	34 nM				
AACAUGUUAGGAUAUGGUCCUGUGCCACAUGGAGGUUUAGGUUAGAAGGGACAUGAGGAUCACCCAUGUUAAAU [Eternabot (L2) Solution 39] (Eterna round: R97, puzzle: Exclusion 4)	168 nM	183 nM				
AACCAGCGAGGAUAUGCUUGCGCGUGUUCUAGUUGUAAUCGACUUGAGGAUCACCCAAGUAGAAGGCGCUGCCG [EX2 #50] (Eterna round: R97, puzzle: Exclusion 2)	103 nM	119 nM				
AACCGGCGGACCGAAGCUUUUUGCUUGUUUUAUACUACUACAUGAGGAUCACCCAUGUCGUGGUGGUCUGUUGUAGA [Bibe] (puzzle: Sensor v3, turn-off variant 2)			15.7 nM		38.9 nM	33.2 nM
AACCUGAGGCUUUGCUUUAGGUAUACAUGAGGAUCACCCAUGUAGGAUAUGGUAGGCUUUGCUUACCAGAAGGACAUGUUAAUU [JL ENG3 1.10] (Eterna round: R96, puzzle: Exclusion NG 3)	136 nM	44.2 nM		41.7 nM		
AACGUCUAGGUAGGAUAUCCACCAACAGGUGGAAGGAUAUGGAAACAGAAGGUUCGCCAACAGGCGGAGAAGGACCUACGCGUA [pwkr exNG2 2xF7 2xFMN.25] (Eterna round: R96, puzzle: Exclusion NG 2)	50.4 nM	387 nM		162 nM		
AAGAAACAUGAGGAUCACCCAUGUGAGGAUAUGACUAAGAAAAGAAAAGAAAGAAGAAUCAGAAGGCACAAAGG [salish99-ex1_r3_053] (puzzle: Exclusion 1)			43 nM		29.7 nM	49.3 nM
AAGAAACAUGAGGAUCACCCAUGUGAGGAUAUGAGUAAGAAAAGAAAAGAAAGAAGAAUCAGAAGGCACAAAGG [salish99-ex1_r3_048] (puzzle: Exclusion 1)			38.3 nM		55.2 nM	38.3 nM

Sequence	apparent KD of MS2 coat protein (input ligand: FMN 200 uM)	apparent KD of MS2 coat protein (input ligand: none)	apparent KD of MS2 coat protein [1]	apparent KD of MS2 coat protein [2]	apparent KD of MS2 coat protein [3]	apparent KD of MS2 coat protein [4]
AAGAAACAUGAGGAUCACCCAUGUGAGGAUAUGAUAAAGAAAAGAAAAGAAAGAAGAAUCAGAAGGCACAAAGG [salish99-ex1_r3_031] (puzzle: Exclusion 1)			51 nM		129 nM	54 nM
AAGAAACAUGAGGAUCACCCAUGUGAGGAUAUGAUCAAGAAAAGAAAAGAAAGAAGAAUCAGAAGGCACAAAGG [salish99-ex1_r3_044] (puzzle: Exclusion 1)			176 nM		295 nM	342 nM
AAGAAACAUGAGGAUCACCCAUGUGAGGAUAUGAUCAAGAAAAGAAAAGAAAGAAGAGUCAGAAGGCACAAAGG [salish99-ex1_r3_065] (puzzle: Exclusion 1)			291 nM		282 nM	418 nM
AAGAAACAUGAGGAUCACCCAUGUGAGGAUAUGAUGAAGAAAAGAAAAGAAAGAAGAUUCAGAAGGCACAAAGG [salish99-ex1_r3_055] (puzzle: Exclusion 1)			48.9 nM		113 nM	80.5 nM
AAGAAACGAGGAUAUACAAUUAAGUGAGAGAGGGAAAUGUGACAUGAGGAUCACCCAUGUAGAAGGCGUAAGAG [JR_Exclu2_Sub084] (puzzle: Exclusion 2)			44.2 nM		66.2 nM	53.5 nM
AAGAAACGAGGAUAUACAAUUGAGUGAGAGAGGGAAGUGUGACAUGAGGAUCACCCAUGUAGAAGGCGUAAGAG [JR_Exclu2_Sub085] (puzzle: Exclusion 2)			79.5 nM		124 nM	73.9 nM
AAGAAACGGCAGGAUAUCCAGUCGAGAGAAAUAGGAGAAGGGCCAACAUGAGGAUCACCCAUGUCGGUGGCCUC [Rariinon] (Eterna round: R97, puzzle: Exclusion 6)	145 nM	78.5 nM				
AAGAAGAAGUAAGGAUAUGAAGAUCUGGUGGUGACAUGAGGAUCACCCAUGUGAAAACAAUAAGAUCAGAAGGUAUAAGAAGAA [AK ExNG2-3.1] (Eterna round: R96, puzzle: Exclusion NG 2)	81 nM	87.9 nM		70.4 nM		
AAGAUACAUGAGGAUCACCCAUGUGAGGAUAUGAGUCAGUCACGGUGACGUGGCUGACUCAGAAGGCACAAAGG [JL-ex1-4.36 salish99 mod] (Eterna round: R97, puzzle: Exclusion 1)	176 nM	110 nM				
AAGAUGCGGGUAGGAUAUGGAGAGAAAGAAAGACCAGAAGGACUGGUCACACAACAUGAGGAUCACCCAUGUGUGUGUUGCGAA [EX ng 1 6] (Eterna round: R96, puzzle: Exclusion NG 1)				8.52 nM		
AAGCUGUCAGGAUAUCGUUAAUUUAGUUGUUUGUAUUAGUUCGAGAAGGGACAUGAGGAUCACCCAUGUAUGAA [Ex4 #41] (Eterna round: R97, puzzle: Exclusion 4)	62.7 nM	31 nM				
AAGGAGUUAGGAUAUCGAAGAAGAAGAAGAAGAAGAAGAAGCGAGAAGGAACAUGAGGAUCACCCAUGUAAGAA [JR_Exclu4_Sub028] (puzzle: Exclusion 4)			50.5 nM		32.5 nM	41.5 nM
AAGGAUAGAGGAUAUACAUAGAUACAGAUUCAUGUAGUCCUACAUGAGGAUCACCCAUGUAGAAGGCUAUCCUA [Fiskers Ex 2 - 12] (Eterna round: R96, puzzle: Exclusion 2)	103 nM	18.7 nM		14.3 nM		
AAGGAUAGAGGAUAUACAUAGAUACAGAUUCAUGUAGUCCUACAUGAGGAUCACCCAUGUAGAAGGCUAUCCUA [Fiskers Ex 2 - 12] (puzzle: Exclusion 2)			15.7 nM			
AAGGCGUCAGGAUAUCCAAUAUAUGACAUGAGGAUCACCCAUGUUUCCACUCGUACCUCCGGAGAAGGGACAAAUA [Ex5 #87] (Eterna round: R97, puzzle: Exclusion 5)	35.6 nM	38 nM				
AAGGGUGCCCUUAGAAAGACAUGAGGAUCACCCAUGUAGACUGAGGAUAUCCACUCCUAAGGACCGGAGAAGGCAGUGUAAUGC [Qubion] (Eterna round: R96, puzzle: Exclusion NG 3)	16.9 nM	18.2 nM		13.8 nM		
AAGGGUGCCUUUAGAACGACAUGAGGAUCACCCAUGUAGACUGAGGAUAUCUACUCCUAAGGACCGGAGAAGGCAGUGUAAUGC [Ex NG3 #63] (Eterna round: R96, puzzle: Exclusion NG 3)	72.1 nM	58.9 nM		41.4 nM		
